For one molecule, IC50 of pseudovirus neutralization (luciferase activity) results are on record in US20240067706A1.

Substrate in the assay: S proteins of SARS-CoV-2 and mutant strains thereof on pseudoviruses
The assay can be described thus: cell-based or functional assay.

B1: fully human monoclonal antibody 76E1 (antibody, V domains shown)
VH: EVQLVESGGGVVQPGGSLRLSCEASGFSFKDYGMHWIRQTPGKGLEWISRISGDTRGTSYVDSVKGRFIVSRDNSRNSLFLQMNSLRSEDTALYYCAALVIVAAGDDFDLWGQGTVVTVSS
VL: QSALTQPLSVSGSPGQSVTISCTGSSSDIGSYNFVSWYRQYPGKAPKVMIYEVNKRPSGVPVRFSGSKSGNTASLTVSGLQHEDEADYYCCSYGGRNNLIFGGGTKLTVL
Consider B1, for which the IC50 of pseudovirus neutralization (luciferase activity) is 0.397 µg/mL.
